US20050053993A1, “Uses of an endothelial cell receptor” (priority 2002, published 2005)

Tests used:
[1] = molecular target: HMVEC (Homo sapiens, UniProt P11021); test: VEGF-stimulated HMVEC migration (Boyden chamber); type: cell-based; details: read-out: inhibition of endothelial cell migration
Protocol: Endothelial cell migration assays: The effect of rK5 on endothelial cell migration was determined by two different methods. The first assay was performed in a 96 well plate with a cellulose membrane between the upper and lower chambers. HMVEC were starved of growth factors overnight, labeled with fluorescent calcein AM (50-100 nM), plated into a 96 well migration chamber (2.9×10^4/well) (Neuroprobe, Gaitherburg, Md.), and stimulated to migrate with VEGF (5 ng/mL). After 4 h, migrated cells were measured by fluorescence (Frevert C W, Wong V A, Goodman R B, Goodwin R, Martin T R. Rapid fluorescence-based measurement of neutrophil migration in vitro. J Immunol Methods. 1998 Apr. 1;213(1):41-52). In a second assay for cellular migration, a standard Boyden chamber was used (Polyerini, P. J., Bouck, N. P. & Rastinejad, F. Assay and purification of naturally occurring inhibitor of angiogenesis. Meth. Enzymol. 198, 440-450 (1991)). HMVEC cells were starved overnight in DME containing 0.1% bovine serum albumin (BSA) and harvested by scraping and resuspended in DME with 0.1% BSA at 1.5×10^6 cells per ml. Cells were added to the bottom of a 48-well, Boyden chamber. The chamber was assembled and inverted, and cells were allowed to attach for 2 hours at 37° C. to polycarbonate chemotaxis membranes (5 μm pore size) that had been soaked in 0.1% gelatin overnight and dried. The chamber was re-inverted, test substances, including activators were added to the wells of the upper chamber and the apparatus was incubated for 4 hours at 37° C. Growth factors were used, where indicated, at concentrations determined in preliminary experiments to give equivalent migration responses of about 100 cells migrated/high powered field (400×). […] Membranes were recovered, fixed and stained and the number of cells that had migrated to the upper chamber per 10 high power fields counted. Background migration to DME+0.1% BSA was subtracted and the data reported as the number of cells migrated per 10 high power fields (400×) or, when results from multiple experiments were combined, as the percent inhibition of migration compared to the positive growth factor control (Polyerini, P. J., Bouck, N. P. & Rastinejad, F. Assay and purification of naturally occurring inhibitor of angiogenesis. Meth. Enzymol. 198, 440-450 (1991)).

[2] = system: neutrophils; test: Neutrophil migration; type: cell-based; details: concentrations up to 1000-fold higher than for endothelial cell migration; data not shown
[3] = system: HT-29; test: Tumor cell proliferation, HT-29; type: cell-based; details: HT-29, 72 hours
Protocol: (§1) Cell Proliferation Assay. The effect of rK5 and rK5 peptides on endothelial cells were assessed using a proliferation assay with 1% BSA and 3 ng/ml bFGF in serum-free media. Relative cell numbers in each well of a 96 well microplate after incubation for 72 hours in the absence or presence of inhibitors were determined by using the AQueous cell proliferation assay (Promega, San Luis Obispo, Calif.). For all other cell lines tested for proliferation, minimal growth media was used (Cao, Y., Ji, R., Davidson, D., Schaller, J., Marti, D., Sohndel, S., McCance, S., O'Reilly, M., Llinas, M., and Folkman, J. Kringle domains of human angiostatin. Characterization of the anti-proliferative activity on endothelial cells. (1996) J. Biol. Chem. 271, 29461-29467). Results are presented as the percent inhibition of control cell (bFGF-induced) proliferation.

[4] = system: A549; test: Tumor cell proliferation, A549; type: cell-based; details: A549, 72 hours
Protocol: as §1

[5] = system: LNCaP; test: Tumor cell proliferation, LNCaP; type: cell-based; details: 72 hours
Protocol: as §1

[6] = system: PC3; test: Tumor cell proliferation, PC3; type: cell-based; details: PC3, 72 hours
Protocol: as §1

[7] = system: Lewis Lung Carcinoma; test: Tumor cell proliferation, Lewis Lung Carcinoma; type: cell-based; details: 72 hours
Protocol: as §1

[8] = system: tumor cell lines; test: Apoptosis of various tumor cell lines under hypoxia; type: cell-based; details: 500 nM rK5, hypoxia overnight; exceptions Lewis Lung and PC-3
Protocol: FIG. 15B is a graph showing the effect of rK5 on induction of apoptosis in various tumor cell lines tested under hypoxic conditions. Cells were plated in 96-well plates overnight. Half the plates were put in hypoxic chambers overnight at 37° C. with and without 500 nM rK5. Increased apoptosis was shown by an ELISA technique that measures the number of nucleosome fragments. The apoptotic index was calculated from the apoptosis rate of control cells (without K5 and with or without hypoxia). The samples were run in quadruplicate.

[9] = system: caspase 7; test: Caspase 7 activity in HT1080 cells; type: cell-based, human; details: rK5 100 nM and hypoxia, overnight
Protocol: FIG. 16 is a graph showing the effect of rK5 and hypoxia treatment on caspace 7 activity in HT1080 cells. HT1080 cells were plated in 48 well plates. rK5 at 100 nM was added to the plates. HT1080 cells were incubated overnight in hypoxic conditions (95% N2, 5% CO2) compared to controls, which were incubated in 5% CO2. Caspase 7 activity in cell lysates was detected by the activation of an ELISA fluorescent substrate (R&D Systems).

[10] = system: GRP78 siRNA transfected HMVEC cells; test: 3HK5 binding to GRP78 siRNA transfected cells; set-up: species or system human; details: compared to scrambled siRNA transfected cells
Protocol: FIG. 13 is a graph comparing the effect of binding of rK5 to GRP78 siRNA transfected HMVEC cells and scrambled siRNA transfected cells. GRP78 siRNA or scrambled siRNA transfected EaHy cells were grown in 96 well plates. The media was changed and ^3HK5 in PBS was added to the cells. The cells were incubated at room temperature for two hours then washed thoroughly. Cell counts were measure for bound ^3HK5. Data points are the average of triplicate studies.
In selected studies, GRP78 siRNA- or scrambled siRNA-transfected EaHy cells were grown in 96 well plates. The media was changed and ^3HK5 in PBS was added to the cells at various concentrations. The cells were incubated at room temperature for two hours then washed thoroughly. Cell counts were measured for bound ^3HK5 as described above. Data points were calculated from the average of triplicate samples.

[11] = system: bovine endothelial cell proliferation; details: previously reported (Cao et al. 1996); read-out: IC50, inhibition of bovine endothelial cell proliferation; cited from earlier work

Sequence of HMVEC (P11021 19-654): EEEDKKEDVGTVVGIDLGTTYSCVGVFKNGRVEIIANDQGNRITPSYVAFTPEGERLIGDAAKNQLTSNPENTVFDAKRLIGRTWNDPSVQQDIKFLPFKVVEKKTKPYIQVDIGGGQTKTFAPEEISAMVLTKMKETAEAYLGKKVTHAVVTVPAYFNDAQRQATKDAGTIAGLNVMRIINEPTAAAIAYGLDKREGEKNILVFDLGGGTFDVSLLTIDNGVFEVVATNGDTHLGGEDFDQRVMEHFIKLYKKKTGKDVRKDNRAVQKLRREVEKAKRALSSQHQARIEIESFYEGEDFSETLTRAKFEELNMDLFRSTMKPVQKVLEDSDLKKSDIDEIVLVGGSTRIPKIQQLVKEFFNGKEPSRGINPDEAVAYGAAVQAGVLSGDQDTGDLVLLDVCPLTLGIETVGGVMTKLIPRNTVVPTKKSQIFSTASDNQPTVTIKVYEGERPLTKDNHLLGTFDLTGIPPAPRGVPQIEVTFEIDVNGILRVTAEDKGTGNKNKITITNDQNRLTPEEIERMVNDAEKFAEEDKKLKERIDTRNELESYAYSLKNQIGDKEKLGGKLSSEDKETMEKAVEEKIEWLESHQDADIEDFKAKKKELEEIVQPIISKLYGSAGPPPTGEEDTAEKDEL

B1: rK5: recombinant kringle 5 fragment of human plasminogen (residues 450-543), expressed in E. coli or yeast (protein)
chain: LLPDVETPSEEDCMFGNGKGYRGKRATTVTGTPCQDWAAQEPHRHSIFTPETNPRAGLEKNYCRNPDGDVGGPWCYTTNPRKLYDYCDVPQCAA
IC50 [1]: 0.25 nM | inhibition of migration of neutrophils [2]: failed to inhibit | IC50 values for cell proliferation [3]: >100 µg/mL | IC50 values for cell proliferation [4]: >100 µg/mL | IC50 values for cell proliferation [5]: >100 µg/mL | IC50 values for cell proliferation [6]: >100 µg/mL | IC50 values for cell proliferation [7]: >100 µg/mL | induction of apoptosis in tumor cell lines under hypoxic conditions [8]: induced apoptosis in 8 out of 10 tumor cell lines | caspase 7 activity [9]: significant increase in caspase 7 activity | binding to GRP78 siRNA transfected HMVEC cells [10]: very low | IC50 [11]: ~50 nM
